According to paper PMC13195613 (Blood Advances, 2026):

Target: T1, recombinant activated factor VII (UniProt P08709 61-212; P08709 213-466)
T1 sequence (looked up) 1: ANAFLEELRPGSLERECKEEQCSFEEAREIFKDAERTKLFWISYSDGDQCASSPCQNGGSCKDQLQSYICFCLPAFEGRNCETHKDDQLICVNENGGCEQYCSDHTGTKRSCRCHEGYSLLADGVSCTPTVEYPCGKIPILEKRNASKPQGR
T1 sequence (looked up) 2: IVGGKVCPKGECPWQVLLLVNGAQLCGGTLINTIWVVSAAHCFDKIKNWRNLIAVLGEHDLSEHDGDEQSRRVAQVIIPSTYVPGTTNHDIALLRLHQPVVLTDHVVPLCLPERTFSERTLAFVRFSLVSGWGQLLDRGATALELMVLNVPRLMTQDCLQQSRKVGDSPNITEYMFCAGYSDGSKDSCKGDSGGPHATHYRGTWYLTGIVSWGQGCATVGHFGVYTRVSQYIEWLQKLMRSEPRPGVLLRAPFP
Assay: BLI

B1: endothelial cell protein C receptor (receptor)
chain: SQDASDGLQRLHMLQISYFRDPYHVWYQGNASLGGHLTHVLEGPDTNTTIIQLQPLQEPESWARTQSGLQSYLLQFHGLVRLVHQERTLAFPLTIRCFLGCELPPEGSRAHVFFEVAVNGSSFVSFRPERALWQADTQVTSGVVTFTLQQLNAYNRTRYELREFLEDTCVQYVQKHISAENTKGSQTSRSYTS
  binding result: binds
